Test results from patent publication US11672826.
Like-named read-outs stand apart in the source and are kept apart here.

Tests used:
Experiment in all cases: cell-based or functional assay
[1] = biological target: IL2Rβ and common γ chain on 32Dβ cells
[2] = biological target: IL2Rβ and common γ chain on 32Dβ cells; remark: listed apart in the source
[3] = biological target: IL2Rαβγ on CTLL2 cells
[4] = biological target: IL2Rβ and common γ chain on 32Dβ cells; remark: listed apart in the source
[5] = biological target: IL-21R on B9 cells
[6] = biological target: TGFβ1 (R&D systems) (UniProt P01137)
Chain of TGFβ1 (R&D systems) (P01137 279-390 limits assumed): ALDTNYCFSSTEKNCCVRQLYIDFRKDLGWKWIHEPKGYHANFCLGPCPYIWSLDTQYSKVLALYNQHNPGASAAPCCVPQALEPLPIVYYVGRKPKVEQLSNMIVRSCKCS

[7] = biological target: TGFβ1 (R&D systems) (UniProt P01137); remark: listed apart in the source

Chain of Human recombinant TGFβRII/Fc (P37173 24-159): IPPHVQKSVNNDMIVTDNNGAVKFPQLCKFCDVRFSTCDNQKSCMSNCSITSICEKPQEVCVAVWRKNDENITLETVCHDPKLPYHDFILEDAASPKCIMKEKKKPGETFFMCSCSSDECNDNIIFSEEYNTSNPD

## recombinant IL-15 (from UniProt P40933 49-162) (ligand)
[1]
  EC50 of 32Dβ cell proliferation (WST1): 0.0166 nM
[2]
  EC50 of 32Dβ cell proliferation (WST1): 0.0106 nM
[3]
  EC50 of CTLL2 cell proliferation (PrestoBlue): 0.00495 nM
  EC50 of CTLL2 cell proliferation (WST1): 0.00622 nM
[4]
  EC50 of 32Dβ cell proliferation (WST1): 0.0016 nM

## recombinant IL-21 (from UniProt Q9HBE4 32-162) (ligand)
[5]
  EC50 of B9 cell proliferation (WST1): 72.5 nM

## recombinant IL-2 (from UniProt P60568 21-153) (ligand)
[3]
  EC50 of CTLL-2 cell proliferation (WST1): 0.548 nM
[4]
  EC50 of 32Dβ cell proliferation (WST1): 0.14 nM

## Human recombinant TGFβRII/Fc (from UniProt P37173 24-159) (Fc fusion)
[6]
  IC50, TGFβ1 activity in HEK-Blue TGFβ reporter cells: 0.559 nM
[7]
  IC50, TGFβ1 activity in HEK-Blue TGFβ reporter cells: 0.461 nM
